In publication PMC7959576 (Proceedings of the National Academy of Sciences of the …, 2020):

B1: CHK-263 IgG (antibody, V domains shown)
VH: VQLQQSGAELVKPGASVKISCKASGYAFSSYWMNWVKQRPGKGLEWIGQIYPGDGDTNYNGKFKGKATLTADKSSSTAYMQLSSLTSEDSAVYFCARGGLTIDYWGQGTTLTVSS
VL: DIVLTQSPATLSVTPGDSVSLSCRASQSISDNLHWYQQKSHESPGLLIKYASQSISGIPSRFSGSGSGTDFTLSINSVETEDFGMYFCQQSNSWPYTFGGGTKLEIK
B2: CHK-124 IgG (antibody, V domains shown)
VH: QLQESGGGLVQPGGSMKLSCVASGFTFSNYWMNWVRQSPEKGLEWVAQIRLKSDSYATYYADSVKGRFTVSRDDSKSNVYLQMNSLRAEDTGIYYCTDFYGFGDFFPYWGQGTLVTVSS
VL: DIVMTQSPKFMSTSIGDRVSVTCQASQNVGTNVAWYQQKPGQSPKPLIYSASYRYSGVPGRFTGSGSGTDFTLTINNVQSEDLADYFCQQYNSFPLTFGAGTKLELK

Target: CHIKV VLPs, E1-E2 heterodimers on the particle surface (Chikungunya virus, VLP strain not …, UniProt Q5XXP3)
Sequence (Q5XXP3 whole entry, looked up, one chain of several): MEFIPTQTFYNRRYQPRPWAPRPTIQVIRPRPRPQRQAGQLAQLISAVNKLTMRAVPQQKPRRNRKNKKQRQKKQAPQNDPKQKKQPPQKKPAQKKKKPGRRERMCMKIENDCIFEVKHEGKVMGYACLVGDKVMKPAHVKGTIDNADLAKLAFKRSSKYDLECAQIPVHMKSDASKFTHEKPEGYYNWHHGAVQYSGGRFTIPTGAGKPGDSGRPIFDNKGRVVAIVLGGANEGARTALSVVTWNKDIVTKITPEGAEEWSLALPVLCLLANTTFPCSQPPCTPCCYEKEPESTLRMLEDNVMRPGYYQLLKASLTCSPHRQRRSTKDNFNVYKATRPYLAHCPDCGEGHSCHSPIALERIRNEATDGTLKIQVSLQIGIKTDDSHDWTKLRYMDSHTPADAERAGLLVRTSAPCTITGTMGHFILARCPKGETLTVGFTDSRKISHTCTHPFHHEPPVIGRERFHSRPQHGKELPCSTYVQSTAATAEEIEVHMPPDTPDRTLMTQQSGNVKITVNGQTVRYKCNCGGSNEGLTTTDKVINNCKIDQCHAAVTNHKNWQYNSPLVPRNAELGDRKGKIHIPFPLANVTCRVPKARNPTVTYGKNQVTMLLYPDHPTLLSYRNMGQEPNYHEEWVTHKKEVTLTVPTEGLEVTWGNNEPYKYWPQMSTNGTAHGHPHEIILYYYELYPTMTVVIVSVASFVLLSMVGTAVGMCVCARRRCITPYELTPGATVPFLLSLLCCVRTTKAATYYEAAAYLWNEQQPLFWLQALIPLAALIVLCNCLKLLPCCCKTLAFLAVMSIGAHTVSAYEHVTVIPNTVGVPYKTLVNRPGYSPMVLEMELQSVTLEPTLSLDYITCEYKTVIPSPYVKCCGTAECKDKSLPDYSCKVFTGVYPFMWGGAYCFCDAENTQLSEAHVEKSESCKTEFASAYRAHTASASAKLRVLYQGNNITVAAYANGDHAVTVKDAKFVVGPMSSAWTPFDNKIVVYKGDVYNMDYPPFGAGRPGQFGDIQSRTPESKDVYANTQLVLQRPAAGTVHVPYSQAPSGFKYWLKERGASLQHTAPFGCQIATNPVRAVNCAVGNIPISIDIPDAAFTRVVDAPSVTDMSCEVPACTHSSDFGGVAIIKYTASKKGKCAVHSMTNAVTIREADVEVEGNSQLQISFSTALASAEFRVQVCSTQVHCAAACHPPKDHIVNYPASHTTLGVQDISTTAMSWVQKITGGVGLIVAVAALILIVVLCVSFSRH
Assay: ELISA

| Binder | binding result |
| --- | --- |
| B1 | binds |
| B2 | binds |
